From US12655198B2

Target: alcohol dehydrogenase (ADH)

ADH aggregation (optical density at 360 nm, 48° C., 2 h) (% decrease in ADH aggregation): 61
B1: CryS96 (αB-crystallin peptide fused with ELP S96) (protein)
chain: GDRFSVNLDVKHFSPEELKVKGVPGSGVPGSGVPGSGVPGSGVPGSGVPGSGVPGSGVPGSGVPGSGVPGSGVPGSGVPGSGVPGSGVPGSGVPGSGVPGSGVPGSGVPGSGVPGSGVPGSGVPGSGVPGSGVPGSGVPGSGVPGSGVPGSGVPGSGVPGSGVPGSGVPGSGVPGSGVPGSGVPGSGVPGSGVPGSGVPGSGVPGSGVPGSGVPGSGVPGSGVPGSGVPGSGVPGSGVPGSGVPGSGVPGSGVPGSGVPGSGVPGSGVPGSGVPGSGVPGSGVPGSGVPGSGVPGSGVPGSGVPGSGVPGSGVPGSGVPGSGVPGSGVPGSGVPGSGVPGSGVPGSGVPGSGVPGSGVPGSGVPGSGVPGSGVPGSGVPGSGVPGSGVPGSGVPGSGVPGSGVPGSGVPGSGVPGSGVPGSGVPGSGVPGSGVPGSGVPGSGVPGSGVPGSGVPGSGVPGSGVPGSGVPGSGVPGSGVPGSGVPGSGVPGSGVPGSGVPGSGY
